The record followed here is US7220569.

For this data set, the target named is T1, Factor X analogue with the furin cleavage site Arg-Arg-Lys-Arg/Ile (rFX^RRKR/I).
T1 chain 1: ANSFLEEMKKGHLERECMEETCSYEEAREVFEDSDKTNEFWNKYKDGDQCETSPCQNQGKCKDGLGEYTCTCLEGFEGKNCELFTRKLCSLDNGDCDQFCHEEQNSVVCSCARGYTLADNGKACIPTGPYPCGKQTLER
T1 chain 2: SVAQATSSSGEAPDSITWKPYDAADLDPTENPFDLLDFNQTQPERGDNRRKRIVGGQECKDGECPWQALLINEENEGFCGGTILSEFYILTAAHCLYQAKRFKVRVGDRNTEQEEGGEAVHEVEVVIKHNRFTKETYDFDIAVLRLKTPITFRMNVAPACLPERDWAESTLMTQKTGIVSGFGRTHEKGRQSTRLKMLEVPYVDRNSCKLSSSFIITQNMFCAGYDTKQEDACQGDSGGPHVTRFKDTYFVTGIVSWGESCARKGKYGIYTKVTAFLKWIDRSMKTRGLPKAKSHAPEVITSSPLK

B1: rfurin deltaCys-spacer-10xHis (purified r-furin derivative) (protein)
chain: DVYQEPTDPKFPQQWYLSGVTQRDLNVKAAWAQGYTGHGIVVSILDDGIEKNHPDLAGNYDPGASFDVNDQDPDPQPRYTQMNDNRHGTRCAGEVAAVANNGVCGVGVAYNARIGGVRMLDGEVTDAVEARSLGLNPNHIHIYSASWGPEDDGKTVDGPARLAEEAFFRGVSQGRGGLGSIFVWASGNGGREHDSCNCDGYTNSIYTLSISSATQFGNVPWYSEACSSTLATTYSSGNQNEKQIVTTDLRQKCTESHTGTSASAPLAAGIIALTLEANKNLTWRDMQHLVVQTSKPAHLNANDWATNGVGRKVSHSYGYGLLDAGAMVALAQNWTTVAPQRKCIIDILTEPKDIGKRLEVRKTVTACLGEPNHITRLEHAQARLTLSYNRRGDLAIHLVSPMGTRSTLLAARPHDYSADGFNDWAFMTTHSWDEDPSGEWVLEIENTSEANNYGTLTKFTLVLYGTAPEG
B1 gave an FXa activity (mU/ml), chromogenic substrate S2337, incubation 0 hours of under 25 mU/ml; an FXa activity (mU/ml), chromogenic substrate S2337, incubation 6 hours of 56 mU/ml; an FXa activity (mU/ml), chromogenic substrate S2337, incubation 24 hours of 101 mU/ml; an FXa activity (mU/ml), chromogenic substrate S2337, incubation 48 hours of 124 mU/ml. The FXa activity (mU/ml), chromogenic substrate S2337, incubation 72 hours came out at 133 mU/ml; the “conversion of the heavy chain to the activated form after 72 hours at 37 C (Western blot)” value is “about 50% of the starting material (HC) have been converted to the activated form”; the specific activity (mU/µg), incubation 0 hours was found to be 0 mU/µg; the specific activity (mU/µg), incubation 6 hours is 80 mU/µg. The same protein yielded a specific activity (mU/µg), incubation 24 hours of 144 mU/µg; a specific activity (mU/µg), incubation 48 hours of 177 mU/µg; a specific activity (mU/µg), incubation 72 hours of 190 mU/µg.
